Our source for the stoichiometry N values is PMC6930364.

A word on the stoichiometry N: it is a count of units in the complex or per binding partner.

This test deals with L-DOPA dioxygenase from Streptomyces sclerotialus (SsDDO) (Streptomyces sclerotialus). Kind of test: crystal structure.

“L-DOPA dioxygenase from Streptomyces sclerotialus (SsDDO) (enzyme)” displayed a stoichiometry N of 2.
